Laboratory results: article PMC7881195

What was measured:
[1] = target: C. elegans PGL-3 N-terminal dimerization domain (NtDD), wild-type (C. elegans); assay: SEC-MALS; C. elegans PGL-3 NtDD wild-type and mutant, 500 µl at 1 mg/ml in HNT buffer (20 mM HEPES pH 7.5, 100 mM NaCl, 0.5 mM TCEP) on Superdex 75 10/300 GL, 0.5 ml/min, 20 °C
[2] = target: C. elegans PGL-1 N-terminal dimerization domain (NtDD), wild-type (C. elegans); assay: SEC-MALS; C. elegans PGL-1 NtDD wild-type and mutants injected at 1 mg/ml in HNT buffer (20 mM HEPES pH 7.4, 100 mM NaCl, 0.5 mM TCEP) on a SEC 650 sizing column, 0.4 ml/min

stoichiometry N [1]	stoichiometry N [2]	Substance
2		C. elegans PGL-3 N-terminal dimerization domain (NtDD), wild-type (domain or fragment)
	2	C. elegans PGL-1 N-terminal dimerization domain (NtDD), wild-type (domain or fragment)
